B1: ANKRD17 (parent)
chain: EVLRRLTSSVSCALDEAAAALTRM

Variants of: B1
Test: protein stability index of a GFP-peptide fusion (GPS, HEK-293T) (PSI 1-6); higher = more stable
Conditions: c terminus: a fixed tail appended
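Also: lentivirally expressed fusions sorted by FACS into six bins by GFP to DsRed ratio, PSI derived from sequencing read proportions per bin multiplied by bin number.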

Protein stability index, by site and new letter:
V2: S 2.59, C 2.34, R 2.6, Y 2.08, D 2.77, T 2.79, I 2.4, W 1.69, Q 2.56, L 2.35, M 2.56, K 2.33, H 3.64, E 2.21, A 2.96, P 2.43
L14: P 1.93, W 1.81, V 1.77, M 2.81, A 2.23, N 2.11, F 1.23, K 1.79, E 3.61, I 2.22, D 1.94, C 2.2, R 1.57, T 2.77, S 2.72, H 2.13, Y 2.27, Q 2.48
L6: N 2.07, K 2.17, M 1.76, C 2.38, A 2.11, Q 2.95, Y 2.28, P 2.38, G 1.42, I 1.67, E 3.9, S 1.73, H 1.66, F 1.9, T 2.32, W 2
V10: T 1.3, Y 1.65, S 1.83, H 1.74, N 1.94, D 3.61, L 2.21, P 1.29, G 1.1, A 3.08, E 1.81, W 1.4, K 2.15, R 1.07, I 2.13, C 1.98
T22: F 2.21, Y 1.85, E 2.06, D 2.22, C 2.1, R 1.31, M 2.39, A 1.94, V 1.24, H 3.03, N 1.93, W 1.46, P 2.33, Q 3, I 2.36, K 1.86
R23: H 1.95, F 4.05, I 1.92, N 1.35, P 2.15, S 1.93, M 1.59, K 1.21, G 2.35, A 2.91, Q 1.74, W 3.5, D 2.8, E 2.64, V 1.02
S9: W 2.63, F 2.38, N 1.81, P 1.94, R 2.69, D 1.65, I 1.97, G 1.64, Q 2.21, Y 1.58, E 1.47, C 1.87, A 2.11, T 1.66, M 2.49
L21: R 5.02, N 3.47, M 1.5, H 1.89, F 1.65, W 1.6, C 1.18, V 2.04, I 1.93, D 1.53
A20: N 3.01, F 1.65, D 1.65, Y 3.13, C 2.73, L 1.45, H 1.52, R 2.64, I 2.52, V 1.91, K 2.69, Q 3.08, W 2.48, M 2.28, E 3.31
E16: Y 2.43, A 2.32, R 2.09, Q 2.56, C 2.46, K 1.54, T 1.88, N 3, F 3.12, D 1.72, V 1.6, H 1.8, I 1.97, L 3.18, S 2.96
R4: E 1.42, C 1.74, Y 2.34, T 2.1, S 1.05, W 1.07, F 1.03, G 2.19, I 1.04, P 2.15, Q 1.57
A17: S 2.16, F 2.03, Y 2.49, T 2.13, M 1.85, V 2.32, E 2.24, D 1.46, I 2.26, L 2.34, C 2.59
T7: Q 2.6, P 2.52, W 1.98, Y 2.2, S 2.09, C 2.05, E 2.81, G 2.27, H 1.17, A 2.96, L 2.95, M 2.05, F 1.66, D 1.81, V 3, K 3.26, N 1.16, R 3, I 2.06
R5: P 2.02, K 4.55, M 2.05, G 2.1, N 2.35, F 1.68, H 2.23, T 1, W 1.02, D 3.56, L 1.59, S 2.18
D15: A 1.35, E 2.2, R 1.85, Q 1.87, M 3.36, H 1.97, P 2.37, C 1.99, G 1.26, N 3.18
A18: N 1.8, I 2.33, M 2.25, W 1.64, T 2.27, Q 2.4, E 1.24, P 2.72, D 1.89, Y 1.69, V 1.8, K 2.92, H 1.68, R 2.43, F 1.94, L 1.68, G 1.85
L3: R 2.17, D 3.35, M 1.41, W 1.4, I 1.23, P 3.4, G 3.68, Y 2.44, A 1.83, T 1.55, S 2.98
S8: D 2.25, H 2.09, G 1.52, K 2.39, W 3.21, Q 1.41, A 1.68, V 2.27, F 4.21, T 3, C 2.81, R 2.21, Y 1.99, M 2.13, N 2.49, P 1.73
A13: T 2.38, S 1.34, K 2.55, F 2.2, R 2.06, W 2.07, P 1.37, M 1.6, N 1.69, Q 1.59, H 2.42, I 2.26, V 1.16, E 2.34, Y 1.66, L 1.38, C 2.58
C12: V 2.48, E 3, I 1.71, P 1.91, F 1.78, L 2.75, A 3.05, W 2.27, T 2.97, G 3.18, Y 1.65, H 4.25, K 2.73, S 2.69, M 1.74, Q 2.41, N 3.93
A19: Y 2.92, S 2.16, K 2.6, F 3.41, E 2.12, V 2.99, P 2.25, L 2.35, D 1.83, G 2.3, T 2.29, H 1.78, N 2.55, I 1.88
M24: H 2.49, W 3.27, F 2.44, C 2.33, S 2.42, T 3.53, L 2.81, V 1.07, Q 2.2, N 1.65, D 1.43, Y 1.43, I 2.08, R 2.72
S11: V 1.35, N 2.65, T 2.42, F 1.12, D 2.18, P 2.79, G 1.03, Y 2.26, Q 1.18, I 2.1, A 1.43, E 1.92, M 2.22

— the supplement of paper PMC10567573
